According to article PMC8935074, “Phosphorylated and Phosphomimicking Variants May Differ—A Case Study of 14-3-3 Protein” (Frontiers in Chemistry, 2022):
Numbering of substitutions follows the chain as printed. In names and notes the source's numbering stands.

Assays:
14-3-3ζ [1] = target: 14-3-3ζ (UniProt P63104); experiment: SEC-RALS, 36.5 μM; details: sites S58
14-3-3ζ [2] = target: 14-3-3ζ (UniProt P63104); experiment: AUC sedimentation velocity, 36.5 μM; details: sites S58
[3] = target: 14-3-3ζ phosphorylated at Ser58 (UniProt P63104); experiment: SEC-RALS; 5 mg/mL (183 μM) pζ and ζm in PBS pH 7.4, 20°C, triplicates; KD of dimerisation estimated from the protein percentage in the dimeric and monomeric peaks; dimer to monomers
14-3-3ζ L12E_M78K = 14-3-3ζ L12E_M78K (UniProt P63104); experiment: as above
14-3-3ζ WT [4] = target: 14-3-3ζ WT (UniProt P63104); experiment: SEC-RALS; size-exclusion chromatography with right-angle light scattering, 1 mg/mL (36.5 μM) protein in PBS pH 7.4, Zenix SEC 300 column, 20°C; dimer to monomers
14-3-3ζ WT [5] = target: 14-3-3ζ WT (UniProt P63104); experiment: AUC; sedimentation velocity, 1 mg/mL (36.5 μM) protein in 50 mM Tris-HCl, 300 mM NaCl, 3 mM NaN3, pH 8, 20°C, 50,000 RPM, c(s) distribution; dimer to monomers
[6] = target: the molecule itself; experiment: SEC-RALS; 4.5 mg/mL (164 μM) ζ_S58D and ζ_S57D_S58D in PBS pH 7.4, 20°C, triplicates; KD of dimerisation calculated from the observed MW as weighted average of dimer and monomer; dimer to monomers
[7] = target: the molecule itself; experiment: AUC; sedimentation velocity, 1 mg/mL (36.5 μM) protein in 50 mM Tris-HCl, 300 mM NaCl, 3 mM NaN3, pH 8, 20°C, 50,000 RPM, c(s) distribution; dimer to monomers
[8] = target: the molecule itself; experiment: FRET or BRET; kinetic FRET assay in a cuvette: 200 nM AF647-labelled plus 200 nM AF488-labelled ζ_S58E_Ntail, then 100-fold excess of non-labelled ζ_S58E; 20 mM sodium phosphate pH 6.8, 15°C; profile fitted for KD and koff; dimer to monomers
FRET; 15°C = target: the molecule itself; experiment: FRET; 15°C
[9] = reference: non-phosphorylated ζ

For “14-3-3ζ (from UniProt P63104) pζ (PKA co-expressed, purified pS58 form)”, the “other: apparent MW” value (14-3-3ζ [1]; [9]) was “weaker; reference 54.5” and the “other: apparent MW” value (14-3-3ζ [2]; [9]) was “weaker; reference 56.4”.

14-3-3ζ (from UniProt P63104) ζ_S58D was tested, and the “other: apparent MW” value (14-3-3ζ [1]; reference: ζ wild type) was “weaker; reference 54.5” and the “other: apparent MW” value (14-3-3ζ [2]; reference: ζ wild type) was “weaker; reference 56.4”.

For “14-3-3ζ (from UniProt P63104) ζ_S57D_S58D”, the “other: apparent MW” value (14-3-3ζ [1]; reference: ζ wild type) was “weaker; reference 54.5” and the “other: apparent MW” value (14-3-3ζ [2]; reference: ζ wild type) was “weaker; reference 56.4”.

“14-3-3ζ phosphorylated at Ser58 (from UniProt P63104 1-245) (natural protein)” showed a Kd [3] of 7.6 mM.

14-3-3ζ (from UniProt P63104) ζ_S58E was tested, and the “other: apparent MW” value (14-3-3ζ [1]; reference: ζ wild type) was “weaker; reference 54.5” and the “other: apparent MW” value (14-3-3ζ [2]; reference: ζ wild type) was “same; reference 56.4”.

“14-3-3ζ L12E_M78K (from UniProt P63104 1-245) (natural protein)” showed a Kd (14-3-3ζ L12E_M78K) of 4.6 mM.

Molecule “14-3-3ζ WT (from UniProt P63104 1-245) (natural protein)” has a stoichiometry N (14-3-3ζ WT [4]) of 2 and a stoichiometry N (14-3-3ζ WT [5]) of 2.

B1: 14-3-3ζ S58D (natural protein, UniProt P63104 1-245, looked up)
chain: MDKNELVQKAKLAEQAERYDDMAAAMKSVTEQGAELSNEERNLLSVAYKNVVGARRSDWRVVSSIEQKTEGAEKKQQMAREYREKIETELRDICNDVLSLLEKFLIPNASQAESKVFYLKMKGDYYRYLAEVAAGDDKKGIVDQSQQAYQEAFEISKKEMQPTHPIRLGLALNFSVFYYEILNSPEKAASLAKTAFDEAIAELDTLSEESYKDSTLIMQLLRDNLTLWTSDTQGDEAEAGEGGEN
notes: 14-3-3ζ protein with C25A C189A and the phosphomimicking mutation S58D; source: E. coli BL21(DE3) CodonPlus RIL, purified (protocol of Hritz et al., 2014)
B1 showed a Kd [6] of 132 ± 7 µM.

B2: 14-3-3ζ S57D_S58D (natural protein, UniProt P63104 1-245, looked up)
chain: B1 chain with S57D
notes: also called double phosphomimicking mutant; source: E. coli BL21(DE3) CodonPlus RIL, purified (protocol of Hritz et al., 2014)
B2 showed a Kd [6] of 348 ± 19 µM.

B3: 14-3-3ζ S58E (natural protein, UniProt P63104 1-245, looked up)
chain: B1 chain with D58E
notes: 14-3-3ζ protein with C25A C189A and the phosphomimicking mutation S58E; source: E. coli BL21(DE3) CodonPlus RIL, purified (protocol of Hritz et al., 2014)
With B3 the “stoichiometry N” value [7] was 2.

B4: ζ_S58E_Ntail, fluorescently labelled (natural protein)
chain: SVDACKGSSGGMDKNELVQKAKLAEQAERYDDMAAAMKSVTEQGAELSNEERNLLSVAYKNVVGARRSEWRVVSSIEQKTEGAEKKQQMAREYREKIETELRDICNDVLSLLEKFLIPNASQAESKVFYLKMKGDYYRYLAEVAAGDDKKGIVDQSQQAYQEAFEISKKEMQPTHPIRLGLALNFSVFYYEILNSPEKAASLAKTAFDEAIAELDTLSEESYKDSTLIMQLLRDNLTLWTSDTQGDEAEAGEGGEN
modifications: Cys5 (of the added N-terminal tail) labelled with AlexaFluor647-C5-maleimide (AF647) in one preparation and AlexaFluor488-C2-maleimide (AF488) in the other
B4 was tested, and the Kd [8] was 350 ± 250 nM and the koff (FRET; 15°C) was 0.731 s⁻¹.
